Measured values reported in US20230272028.

How the values were obtained:
[1] = tested on: ALU30-19
[2] = tested on: ALU30-13
[3] = tested on: ALU30-8
[4] = tested on: ALU30-16
[5] = tested on: ALU30-12
[6] = tested on: ALU30-10
[7] = tested on: ALU30-1
[8] = tested on: ALU30-9
[9] = tested on: ALU30-7
[10] = tested on: ALU30-17
[11] = tested on: ALU30-5
[12] = tested on: ALU30-6
[13] = tested on: ALU30-15
[14] = tested on: ALU30-11
[15] = tested on: ALU30-18
[16] = tested on: ALU30-14
[17] = tested on: ALU30-3
Chain of ALU30-3 (chain, as listed by the source): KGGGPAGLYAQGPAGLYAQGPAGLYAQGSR

[18] = tested on: ALU30-4
Chain of ALU30-4 (chain, as listed by the source): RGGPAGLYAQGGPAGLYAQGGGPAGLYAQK

[19] = tested on: ALU30-2
Chain of ALU30-2 (chain, as listed by the source): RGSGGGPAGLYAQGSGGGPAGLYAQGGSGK

Chain of ALU30-19 (chain, as listed by the source): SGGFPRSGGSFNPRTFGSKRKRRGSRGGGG
Chain of ALU30-8 (chain, as listed by the source): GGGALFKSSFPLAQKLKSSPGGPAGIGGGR
Chain of ALU30-10 (chain, as listed by the source): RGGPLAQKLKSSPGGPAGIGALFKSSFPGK
Chain of MMP-9, recombinant human (chain, as listed by the source): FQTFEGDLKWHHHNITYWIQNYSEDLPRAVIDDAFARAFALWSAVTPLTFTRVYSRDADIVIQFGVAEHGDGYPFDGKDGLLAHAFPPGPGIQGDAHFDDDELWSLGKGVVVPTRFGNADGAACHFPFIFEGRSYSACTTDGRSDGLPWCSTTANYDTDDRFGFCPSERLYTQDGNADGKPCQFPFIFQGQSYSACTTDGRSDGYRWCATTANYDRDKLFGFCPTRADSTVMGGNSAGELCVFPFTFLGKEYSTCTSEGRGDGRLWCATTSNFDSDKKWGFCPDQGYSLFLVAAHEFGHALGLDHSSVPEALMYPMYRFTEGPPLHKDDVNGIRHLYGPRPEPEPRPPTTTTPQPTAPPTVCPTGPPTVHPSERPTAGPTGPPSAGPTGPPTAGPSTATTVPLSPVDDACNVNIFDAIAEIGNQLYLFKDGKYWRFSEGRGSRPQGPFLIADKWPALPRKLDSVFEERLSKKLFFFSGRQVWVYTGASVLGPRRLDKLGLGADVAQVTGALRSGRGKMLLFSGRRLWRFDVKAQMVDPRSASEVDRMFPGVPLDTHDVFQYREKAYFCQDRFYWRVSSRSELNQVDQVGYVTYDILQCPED
Chain of ALU30-9 (chain, as listed by the source): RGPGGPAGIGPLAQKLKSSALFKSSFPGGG
Chain of ALU30-1 (chain, as listed by the source): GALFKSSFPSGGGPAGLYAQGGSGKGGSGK
Chain of ALU30-16 (chain, as listed by the source): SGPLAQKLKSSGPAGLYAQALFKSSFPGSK
Chain of ALU30-5 (chain, as listed by the source): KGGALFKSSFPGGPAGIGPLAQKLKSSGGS
Chain of hepsin, recombinant human (chain, as listed by the source): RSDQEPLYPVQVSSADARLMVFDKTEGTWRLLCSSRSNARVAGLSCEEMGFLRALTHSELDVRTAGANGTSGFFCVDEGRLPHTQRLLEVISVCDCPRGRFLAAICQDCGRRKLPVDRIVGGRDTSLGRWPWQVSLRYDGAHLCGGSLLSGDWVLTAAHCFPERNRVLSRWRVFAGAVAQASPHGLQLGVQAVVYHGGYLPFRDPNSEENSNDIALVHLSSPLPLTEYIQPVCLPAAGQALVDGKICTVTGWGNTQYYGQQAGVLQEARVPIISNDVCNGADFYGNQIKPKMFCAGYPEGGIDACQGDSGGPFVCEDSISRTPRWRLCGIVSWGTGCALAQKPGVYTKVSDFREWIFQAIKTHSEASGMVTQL
Chain of ALU30-6 (chain, as listed by the source): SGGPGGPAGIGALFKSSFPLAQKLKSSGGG
Chain of ALU30-12 (chain, as listed by the source): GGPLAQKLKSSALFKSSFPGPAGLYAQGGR
Chain of ALU30-7 (chain, as listed by the source): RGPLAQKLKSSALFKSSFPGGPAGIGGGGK
Chain of Factor Xa, recombinant human (chain): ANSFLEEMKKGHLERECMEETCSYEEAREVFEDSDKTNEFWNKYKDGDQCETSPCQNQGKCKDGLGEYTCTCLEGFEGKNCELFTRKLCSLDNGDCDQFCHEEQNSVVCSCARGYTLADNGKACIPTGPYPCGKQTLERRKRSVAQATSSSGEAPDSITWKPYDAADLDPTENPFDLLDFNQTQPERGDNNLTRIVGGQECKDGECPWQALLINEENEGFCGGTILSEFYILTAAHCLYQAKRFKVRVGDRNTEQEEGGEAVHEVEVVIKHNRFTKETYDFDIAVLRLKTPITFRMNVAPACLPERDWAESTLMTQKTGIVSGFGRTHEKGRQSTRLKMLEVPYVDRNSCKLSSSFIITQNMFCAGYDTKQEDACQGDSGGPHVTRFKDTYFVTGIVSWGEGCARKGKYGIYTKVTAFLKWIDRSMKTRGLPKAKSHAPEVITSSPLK
Chain of ALU30-13 (chain, as listed by the source): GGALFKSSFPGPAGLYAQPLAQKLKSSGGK
Chain of ALU30-14 (chain, as listed by the source): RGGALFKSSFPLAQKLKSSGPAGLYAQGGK
Chain of ALU30-15 (chain, as listed by the source): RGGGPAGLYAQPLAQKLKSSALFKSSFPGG
Chain of ALU30-17 (chain, as listed by the source): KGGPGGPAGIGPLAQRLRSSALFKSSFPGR
Chain of ALU30-18 (chain, as listed by the source): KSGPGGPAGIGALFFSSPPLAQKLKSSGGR
Chain of ALU30-11 (chain, as listed by the source): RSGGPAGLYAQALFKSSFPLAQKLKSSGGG

Substance	30-mer peptide degradation by recombinant enzyme (MSP-MS) [1]	30-mer peptide degradation by recombinant enzyme (MSP-MS) [2]	30-mer peptide degradation by recombinant enzyme (MSP-MS) [3]	30-mer peptide degradation by recombinant enzyme (MSP-MS) [4]	comparison of cleavage efficiencies across the 30-mer library [4]	30-mer peptide degradation by recombinant enzyme (MSP-MS) [5]	30-mer peptide degradation by recombinant enzyme (MSP-MS) [6]	30-mer peptide degradation by recombinant enzyme (MSP-MS) [7]	30-mer peptide degradation by recombinant enzyme (MSP-MS) [8]	30-mer peptide degradation by recombinant enzyme (MSP-MS) [9]	30-mer peptide degradation by recombinant enzyme (MSP-MS) [10]	30-mer peptide degradation by recombinant enzyme (MSP-MS) [11]	30-mer peptide degradation by recombinant enzyme (MSP-MS) [12]	30-mer peptide degradation by recombinant enzyme (MSP-MS) [13]	30-mer peptide degradation by recombinant enzyme (MSP-MS) [14]	30-mer peptide degradation by recombinant enzyme (MSP-MS) [15]	30-mer peptide degradation by recombinant enzyme (MSP-MS) [16]	30-mer peptide degradation by recombinant enzyme (MSP-MS) [17]	30-mer peptide degradation by recombinant enzyme (MSP-MS) [18]	30-mer peptide degradation by recombinant enzyme (MSP-MS) [19]	also measured
Factor Xa, recombinant human	Peptide Alu30-19 with this motif was completely degraded before the 5 min time point	all other peptides bearing a CTSL1_1 motif were cleaved by Factor Xa at either ALF|KSSFP (SEQ ID NO: 198) or ALFKS|SFP (SEQ ID NO: 198)	all other peptides bearing a CTSL1_1 motif were cleaved by Factor Xa at either ALF|KSSFP (SEQ ID NO: 198) or ALFKS|SFP (SEQ ID NO: 198)	all other peptides bearing a CTSL1_1 motif were cleaved by Factor Xa at either ALF|KSSFP (SEQ ID NO: 198) or ALFKS|SFP (SEQ ID NO: 198)	the lowest susceptibility to thrombin, Factor Xa, and hepsin	all other peptides bearing a CTSL1_1 motif were cleaved by Factor Xa at either ALF|KSSFP (SEQ ID NO: 198) or ALFKS|SFP (SEQ ID NO: 198)	all other peptides bearing a CTSL1_1 motif were cleaved by Factor Xa at either ALF|KSSFP (SEQ ID NO: 198) or ALFKS|SFP (SEQ ID NO: 198)	all other peptides bearing a CTSL1_1 motif were cleaved by Factor Xa at either ALF|KSSFP (SEQ ID NO: 198) or ALFKS|SFP (SEQ ID NO: 198)	all other peptides bearing a CTSL1_1 motif were cleaved by Factor Xa at either ALF|KSSFP (SEQ ID NO: 198) or ALFKS|SFP (SEQ ID NO: 198)	all other peptides bearing a CTSL1_1 motif were cleaved by Factor Xa at either ALF|KSSFP (SEQ ID NO: 198) or ALFKS|SFP (SEQ ID NO: 198)	all other peptides bearing a CTSL1_1 motif were cleaved by Factor Xa at either ALF|KSSFP (SEQ ID NO: 198) or ALFKS|SFP (SEQ ID NO: 198)	the only library peptide with significant cleavage was Alu30-5, cleaved at the CTSL1_1 motif ALFKS|SFP (SEQ ID NO: 198), upstream of a FAPa_1 motif	all other peptides bearing a CTSL1_1 motif were cleaved by Factor Xa at either ALF|KSSFP (SEQ ID NO: 198) or ALFKS|SFP (SEQ ID NO: 198)	all other peptides bearing a CTSL1_1 motif were cleaved by Factor Xa at either ALF|KSSFP (SEQ ID NO: 198) or ALFKS|SFP (SEQ ID NO: 198)	all other peptides bearing a CTSL1_1 motif were cleaved by Factor Xa at either ALF|KSSFP (SEQ ID NO: 198) or ALFKS|SFP (SEQ ID NO: 198)	The peptide with the motif CTSL1_2 was cleaved at the lowest efficiency	all other peptides bearing a CTSL1_1 motif were cleaved by Factor Xa at either ALF|KSSFP (SEQ ID NO: 198) or ALFKS|SFP (SEQ ID NO: 198)				
hepsin, recombinant human	Alu30-19 was cleaved at all three motifs within the first 15 min of the reaction				the lowest susceptibility to thrombin, Factor Xa, and hepsin																apparent catalytic efficiency (kcat/KM) [1]: The authentic peptide Alu30-19, as well as the top cleaved peptides Alu30-8,-9, -12, and -14 all had apparent catalytic efficiencies on the same order of 105; apparent catalytic efficiency (kcat/KM) [3]: The authentic peptide Alu30-19, as well as the top cleaved peptides Alu30-8,-9, -12, and -14 all had apparent catalytic efficiencies on the same order of 105; apparent catalytic efficiency (kcat/KM) [5]: The authentic peptide Alu30-19, as well as the top cleaved peptides Alu30-8,-9, -12, and -14 all had apparent catalytic efficiencies on the same order of 105; apparent catalytic efficiency (kcat/KM) [8]: The authentic peptide Alu30-19, as well as the top cleaved peptides Alu30-8,-9, -12, and -14 all had apparent catalytic efficiencies on the same order of 105; comparison of cleavage efficiencies across the 30-mer library [13]: it had slightly higher hepsin susceptibility and lower CTSL1 activity; apparent catalytic efficiency (kcat/KM) [16]: The authentic peptide Alu30-19, as well as the top cleaved peptides Alu30-8,-9, -12, and -14 all had apparent catalytic efficiencies on the same order of 105
thrombin, recombinant human	Thrombin showed higher activity than Factor Xa, and it cleaved each of the 30-mer peptides	the peptides Alu30-12, Alu30-13 and Alu30-15, with MMP141 motifs in combination with ADAM17_2 and CTSL1_1, were cleaved at lower efficiency by thrombin	Thrombin showed higher activity than Factor Xa, and it cleaved each of the 30-mer peptides	Thrombin showed higher activity than Factor Xa, and it cleaved each of the 30-mer peptides	the lowest susceptibility to thrombin, Factor Xa, and hepsin	the peptides Alu30-12, Alu30-13 and Alu30-15, with MMP141 motifs in combination with ADAM17_2 and CTSL1_1, were cleaved at lower efficiency by thrombin	Thrombin showed higher activity than Factor Xa, and it cleaved each of the 30-mer peptides	The peptides Alu30-1 and Alu30-3 were the most rapidly cleaved in the library	The two alternate ADAM17 motifs were cleaved with similar efficiency (peptides Alu30-17 vs Alu30-9)	Thrombin showed higher activity than Factor Xa, and it cleaved each of the 30-mer peptides	The two alternate ADAM17 motifs were cleaved with similar efficiency (peptides Alu30-17 vs Alu30-9)	Thrombin showed higher activity than Factor Xa, and it cleaved each of the 30-mer peptides	the CTSL1_2 motif had lower cleavage activity than did the CTSL1_1 motif (peptides Alu30-18 vs Alu30-6)	the peptides Alu30-12, Alu30-13 and Alu30-15, with MMP141 motifs in combination with ADAM17_2 and CTSL1_1, were cleaved at lower efficiency by thrombin	Thrombin showed higher activity than Factor Xa, and it cleaved each of the 30-mer peptides	the CTSL1_2 motif had lower cleavage activity than did the CTSL1_1 motif (peptides Alu30-18 vs Alu30-6)	Thrombin showed higher activity than Factor Xa, and it cleaved each of the 30-mer peptides	The peptides Alu30-1 and Alu30-3 were the most rapidly cleaved in the library	Alu30-4 was also an efficient substrate	The peptide Alu30-2, bearing two MMP14_1 motifs, was less susceptible to thrombin	
MMP-9, recombinant human		The next most efficient substrates contained the pair of motifs where MMP14_1 was followed directly by ADAM17_2	The FAPa_1 motif was not cleaved by MMP9, however, when followed either by the ADAM17_2 motif or the spacing residues GG			The slowest peptides bear the MMP14_1 motif near the C-terminus of the 30-mer peptide	the FAPa_1 motif was also cleaved within the peptides bearing FAPa_1 directly followed by the CTSL1_1 motif at PGGPAG|IGALF (SEQ ID NO: 247); these were lower efficiency cleavages	The single or double MMP14_1 motif-bearing peptides were next in the order	The FAPa_1 motif was not cleaved by MMP9, however, when followed either by the ADAM17_2 motif or the spacing residues GG	The FAPa_1 motif was not cleaved by MMP9, however, when followed either by the ADAM17_2 motif or the spacing residues GG		The FAPa_1 motif was not cleaved by MMP9, however, when followed either by the ADAM17_2 motif or the spacing residues GG	the FAPa_1 motif was also cleaved within the peptides bearing FAPa_1 directly followed by the CTSL1_1 motif at PGGPAG|IGALF (SEQ ID NO: 247); these were lower efficiency cleavages	The next most efficient substrates contained the pair of motifs where MMP14_1 was followed directly by ADAM17_2			The slowest peptides bear the MMP14_1 motif near the C-terminus of the 30-mer peptide	The most efficient MMP9 substrates were those that bore three-repeats of the MMP14_1 motif	The most efficient MMP9 substrates were those that bore three-repeats of the MMP14_1 motif	The single or double MMP14_1 motif-bearing peptides were next in the order	product formation at single bonds (MSP-MS) [7]: the specific cleavage of the Alu30-2 peptide was more efficient than the Alu30-1 peptide; product formation at single bonds (MSP-MS) [19]: the specific cleavage of the Alu30-2 peptide was more efficient than the Alu30-1 peptide
